{"source": "paper PMC10338323", "molecular_target": "EvdS6 (Micromonospora carbonacea var. aurantiaca)", "assay": "crystal structure; EvdS6 with copurified NAD+, ligand-free and TDP-bound states; hanging drop at about 25 °C; two protein chains in the asymmetric unit", "data": [{"substance": "EvdS6 (enzyme)", "values": [{"measurement": "stoichiometry N", "value": 2}]}]}
